Measured values reported in a protein production outcome set (Wang et al. 2014).

Test: label from the status in PepcDB records
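Also: failed if final PepcDB status was selected cloned or expressed and not failed if soluble or beyond.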

Which protein production does the source give for “MNSDGSDNFELVKKSYGRNFSGISGCAWSPDGSRIAYISSDHNGSDRLVTLNPDGSNEQIVASFAEISALAWAPDSSGMAFNAAYSEDGQTGIYLADLESSEPVFLVRGEIRQQIQSWQSEVWSPDGSRILYSSNENGNSDTNENGNSDIYSVNTDGSEKIQLTDDNSKDYSPCFSPDGSKIIFISDRTGHSSIWIMSSNGDKEEELTEGFEGIHDFSWNPNGQKIAFSSDSNSYIQEIDYSESGDEDSQDDSSSDDSDNDTEVNPEYLHMEILSPDLNFAASQGTPELITVRITNNSGSPVQSSGFKFIKANFSNGDPELQLFDDGTHEDITASDGIFSNQWIPVNTTGLPLTLCILWASADHESLGDAEQIISGTISRKPIPSDLVIENISWSPADPYVNDNITFSITSANRGSGPSEACKVKCYINGNEAYSYSLPELEARSSTSIIFSWIPTAPGNIDVKAVVDEENQVSESVEENNEKSVSFSVKSLTPSTSSGKSGGKSSSSGGGGGGGGSPEPASNVRIKELSQQYITSGKYAKFAFPRNATCVTHVAFNSRRTAGKTTTIVEMLKNKSTRVPDLPAGKIYENVNIWVGNKGTADPENIENAVVGFRVEKSWITLNDVDPASVRLWRLSSGEWEELSIRQSGEDDRYSYFEAQTEGFSHFVITAPSGENETIENALKSSIVPPVRSSAEVMEELFGKLSGKQNADFPVISAMSVNESGSEPEAPSTAGHAADRITGRGIIKVLVVIALLSVTGFLGSLILRKQN” here?
Its protein production is “failed”.

Which protein production does the source give for “MKYRQWVLGAGFTLSVGLSSVAHAFSIPQPANEIAASKFVHIQVQAEQGDADAQFLLGLMFLSGRYVQQEVPSGLHWITLAAEQQHEKAQQTLADLSFEGQLIKRDLAVAERWYKDMGERGNRWAQFRLGFIYASGGDGVKRNCGKAVEQFTRVGDDIALGNVAWILATCPEAEYRDGNKALELSLQLLKVNENDPTNLDNLAAAYAEVGDFGAAVSTQQKAIAALKMTAEATKTDEFKQRLHSYEQKRAYRETLRLLE” here?
The protein production was “failed”.

Which protein production does the source give for “VELLQVDADLQAEIVGKYNADLQKAVQIEEKKAREIATEAVKEHVTAEYEERYAEHEEHDRIMRDVAEILEQMEHAEVRRLITEDKVRPD” here?
Its protein production is “not failed”.

With “MRGSHHHHHHTDPALRAATLLQLHFAFNGPFGDAMAEQLKPLAESINQEPGFLWKVWTESEKNHEAGGIYLFTDEKSALAYLEKHTARLKNLGVEEVVAKVFDVNEPLSQINQAKLAGLCGR” as the sequence, how does the protein production read?
The protein production was “not failed”.

Which protein production does the source give for “MSDFLQTTHLIIILCFLQQFLCTRMDIVIWLTCTTVPLSRRGRIGLGGSVILHVSDIHCSLRRLEDIISSLPVKPSTVAATGDFECEKAAVAIVEWSRREGVPLVAVTGNLDHAGVRRVLRSAGVLMDGRVDRVGGLVFGGVGGMDPRTSMEMLLRSLESSGLTVDVLLTHHPPHGVLDTTFAGVRAGLHDLRSLVDSLKPRAHLFGHIHESPGIESIGGTVFVNPGPAYEGRYALVRILGSVVKAELYTA” here?
Its protein production is “failed”.

Which protein production does the source give for “MKKFPELRKYTNPVWVRLVILCQKKLKVCFIMFIVMSISTSAEIYYEEAEEFLSKGDLVQACEKYYKAAEEAIKLLVIENNLKEIINEAEEHGWDSKTLNDAVTELSYKLGDNIIDMWASAVTLFTARKFMDKDLIENYKKDIKTLIEEAKQRFSIKVLKLEHHHHHH” here?
Its protein production is “failed”.

With “KYANGTFFTYRPEAWDWMYTVAEEFDTIVAGLFGLITGGLLSVDSIAGEFENGTISRLYSLPINRWEIYFGKVIEKI” as the sequence, how does the protein production read?
The protein production was “failed”.

For “DNHGVVHCVESAPAAVSAGKRALSQLVEDQKIVFHTETVERAMNQLPAPTLVVLDPPRVGAGAETVRAIAQSGPQAAIHIGCDPATFARDIAEWSRNGFILEKLRVFDAFPGTHHCETIGLLTKKN”, which protein production is on record?
The protein production was “failed”.

Which protein production does the source give for “MKINKLLFGMLLLLLASCGSSRKVEKQSEQVAVQEINLTPEQQRKYDYFFLEASRLKVKKEYTAAFDLLQHCLAINPTGSAALYEIAQYYLFLKQAPQGQEALEKAVAYAPDNYWYSQALAGLYQQQDQKEKAIGILEKMATRFPAKQDPLFNLLDLYNQKEDYGKVISTLNRIEEKTGKNEQITMEKFRIYLQMKDDKKAFEEIESLVNEYPMDYRYQVILGDVYMQNGKKQEAYDTYKKVLAAEPDNPMALFSLASYYEQTGQKELFEQQMDTLLLNRKVPSDTKVNVMRQFIVQSEQEGKDSTQVIGLFDRMMQMDMDDVQIPMLYAQYLLSKGMEAQSIPVLEQVVQIDPTNKAARMTLLGSAIRKNDYEQVIKICEPGIEATPDALEFYFYLVIAYNQAEHWDDVLEVSRKALEHVTPESDKQMVSDFYTIIGDVYHTKKLMKEAYAAYDSALVYNPSNIGALNNYAYYLSVERRDLDKAEEMSYKTVKAAPNNATYLDTYAWILFEKGNYAEARIYIDDAIKNTKPEEESSVVFEHCGDIYFMTGDVEGALKYWKKALELGTESKTLKQKIEKKKYIAE” here?
Its protein production is “failed”.

For “MDQMEKITTGVSYTTSAVGTGYWFLQLLDRVSPSQWAAIGVLGSLLFGLLTYLTEVYWQ”, which protein production is on record?
Its protein production is “failed”.

With “MTTEAPIWPAELFEDLDRNGPIPLYFQVAQRLEDGIRSGVLPPGARLENEISVAKHLNVSRPTVRRAIQEVVDKGLLVRRRGVGTQVVQSHVTRPVELTSFFNDLKNANLDPKTRVLEHRLLAASSAIAEKLGVSAGDEVLLIRRLRSTGDIPVAILENYLPPAFNDVSLDELEKGGLYDALRSRGVVLKIANQKIGARRAVGEESTLLDIEDGGPLLTVERVALDNSGQVIELGSHCYRPDMYNFETTLVAR” as the sequence, how does the protein production read?
Its protein production is “not failed”.

Which protein production does the source give for “MAELAANDIDSALRWLERAIDHDPEYSSAYAALGDIYQRTNDPVEADYCLRMALRCSPDSSEILHKLARNCVTLGNRSEALALLREAKDRHSGSVDFLSQLALIYDDLDETDLAICTWEEVIALNPLDASAHNNLGLQWHYGKGDVDKALDCFMRALQLNPCLTEARFNLYQAKADAGKVDEALAGFESMLAEPFREEVMFHRSIMLLKNRRFGEGWREYHLRWRYRGTQSRSFPFPNWDGQPCTGKTLLVYGEQGLGDEIMFASCLRDLHEKTGAKIVLECNTRLESLFRRSFPGITVIGRSSAQTSADGLASGATIDFQTAIGDLPGMFRAEEAAFPNHRGYLVADPKRVTFWKDRLAALGEGPKIGISWRGGQGKTRREARSIPLQEWHPILAAEGRHFVSLQYTDCRQELQALEEQHGIVIHHWQEAIDDYDETAALVMALDKVITVCTSIVHLTGALGRPAWVLVPRVPEWRYLASGETMPWYPSVRLFRQPRAGDWAPVLRDIAWKLGTVARRVDHDLG” here?
Its protein production is “failed”.

With “FFSNAEVAERLAYPQLIEALRIGLAKPCSAPLRNCHALPAQASLLQMPVWQAGAGIGVKLVTVFPGNGARGLPAVAAVFALFDGEDGRPLALLEASELTARRTACSSALAADYLARDDARRLLVVGCGTLAAHMVRAHACVRDYRHIDIWGRDPAKAAALAARLREEGYPARAADGLRAAVEAADCVSCVTTSREALVRGAWLKPGVHLDLVGAFLPSMRETDVLAVARARVVVDTRAGALEEAGDLLQAIAEGAIGREAISTELRDLLSGAGRRGDPGEITLFKSVGYALEDLVAARRVV” as the sequence, how does the protein production read?
Its protein production is “failed”.

For “MPKAINYKANSVVYFSGDFDERVFLLNTGSIALTSIDIETGEQVTDYIKTGEFFGVKSALGNYPREESAMVLTDSIVYSFTSKEFEAFAQTNTRIILQMIKVFSRQLRTIHKQLASLLDSEEEKNPEEGLFNVMNAFYSSQHYKAAGQVGTRYKAIYPNGKYISQVDQIVRSTAEVAGRSFGNAEGHNNDAVLAHHEKPAAVTDGTVHLAYNKAEDLFEKGEFEAAYDQYHAVIEAGAGDEITDNAYIGAGKSLHSQKEYVRCLQLLTGFISQHPKSSKIGDALMYLGMCYMDMERPDKAIAFFDKAAILSGADIIGKIRELQKECSSRLQGA”, which protein production is on record?
The protein production was “failed”.

Which protein production does the source give for “IGIVNDMPLAVEALRRALAFEPQHQIVWVASNGAEAVTQCAADTPDVVLMDLLMPVMDGVEATRRIMAESPCAIVIVTVDIEQNVHRVFEAMGYGALDAVNTPALGIGNPQTAAAPLLRKIQNVGWLIGQRDNRGKVQVVPPKAGGARQRLVAIGASAGGPASLAVLLKQLPASFNAAVVLVQHVDEVFAAGMAEWLASESKLPVRLARDGEPPIPGQILLAGTNNHIRLLRNGSLVYTAEPRSFVYRPSIDVFFESVANYWRGDAVGVLLTGMGRDGAQGLKQMRERGFLTIAQDQASCAVYGMPKAAAAIDAAVQILSLEKIA” here?
The protein production was “failed”.

Which protein production does the source give for “SGRPFVEMYSEIPEIIHMTEGRELVIPCRVTSPNITVTLKKFPLDTLIPDGKRIIWDSRKGFIISNATYKEIGLLTCEATVNGHLYKTNYLTHRQTNTIIDVQISTPRPVKLLRGHTLVLNCTATTPLNTRVQMTWSYPDEKNKRASVRRRIDQSNSHANIFYSVLTIDKMQNKDKGLYTCRVRSGPSFKSVNTSVHIYDKAFITVKHR” here?
Its protein production is “not failed”.

Which protein production does the source give for “MNIQLNGQCRCIPETSSIAGLLAEEGFSERRVAVEVNGEIVPRTLHVNYVLREGDRVEIVHALGGG” here?
The protein production was “failed”.

With “MMDLHTHTVYSDGIGLIRDNVAWAEKRGLKIVGISDHIHFFTPSRFSAYINEINVIKEESEIVVLAGIEANILENGPDITDEFRKKLDYAIASVHEWFGRNGTHEYINYVKKAIMDDNVDIIGHFGNSFPWIGYPTREEIDEILDLAEAYGKAFEISARYKVPDLEFIRECVKRGIKLSLATDAHRPEDVGKVSWSLKMLEKAGGTKEDLIFSEYL” as the sequence, how does the protein production read?
The protein production was “failed”.

Which protein production does the source give for “METKANYTIVGIFTLIVIAAAFGFVYWMAEFGRGGPTAQLVVRIPGSANGLSVGSPVRFNGIPVGTVRGLAIDRDDPAYSIAFTEVQADAPVFPSTRAVLEIQGLTGAAYIELSGGNKDGERILQKSVESGVPAELTADLSSVTNLLATADKILKRADGAIGELQGFVQDARGPLTQTVRNAEKFSDALAANSDGIKNFIASLSSLSTTVQSVSVRLDGTLTAVENLVKAVDAGKIDSILSNVDKVTKDVASASSDIQGIMETVQSTARNFEAASTEVQTVVKRADELLASVDPAKVSTVVGDVSAATADARDAVANFKRIADDVGARRADIDQAVSDFTEMGRKLNLASSRVDGILAKVDGMLGTDDANSLFAKARETLTSFKAVADNLNARIGPIADNLTRFSSSGLKDFQALIGSTRQTVDNLNNAITNIDRDPQRLIFGGETVKQYDGRTRRLEHHHHHH” here?
The protein production was “failed”.

With “MTSKKNSDVIYKSSSNILNEMRAGLIKGAGQDMERIKKRPLIAIANSHSELTTGHAHLAGLGAKVKQGIIAAGGEFAEFNVPAPCDGIAMAHDGMRYVLAQRDLIADIVETHVRSQAFDAVVFIAGCDKINPGMMMAMGRLDLPSLFLAGGPGQMNIRNTPTFNGNIDHGNYFNSPLEFKETFNCASCGACEFMGTANTFQCLAEALGICLPGSANIPAWHSDKLAAARATGEHIVHLFKEGITARQIMTKEAFNNALVMNMAIGGSTNAALHLPAIAHSAGIEMDIKAFETVDHIPTLLAISPNGPYGVQDLWAAGGMPAVMKVMQSDLDTSCLTVTGLPLQATIDNATILNPKVIPERSKPNRQEPGITVLRGNLAPEGCVIKQAGVKPELMYTSGPAICFDSEDDAINMIQDGKLKEGQVIVLRYMGPKGAPGMPEMLGATLALKVAGLSSASLITDGRFSGATSGPCVGHITPEASNGGFIAFIEDGDIITVDIKNRSIHCDVSDEEIEKRKQNWAPTIKPVAFGFMERYRKHVKTASEGAILD” as the sequence, how does the protein production read?
The protein production was “failed”.

Which protein production does the source give for “MSGVILGRYWGGLSQLIYVIIGAAGVPWFADMSGGPEVLLGATGGYLLGFILAALLLGHFVDRHIRARKFTPMLGLMTIANFGLIYIPGLVVLGLWSLKTQGTLPGPWELLVMGLLPFIPGDILKITGAAALTRAITPKEPYGEEIDIQKAEGWRVP” here?
The protein production was “failed”.
